Laboratory results as given in the supplement of paper PMC9233669.
Variants at the floor of the assay were thinned out.

Experiments:
[1] = system: biotinyl-Phe-oxazolone; experiment: self-aminoacylation, catalytic enhancement (BFO) (fold over background); higher = more active; k-Seq, kA / k0A0; sequences stand for … in GGGAAUGGAUCCACAUCUACGAAUUC…UUCACUGCAGACUUGACGAAGCUG
Procedure, shortened: (§1)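 Mutagenized RNA pools with a 21-nt variable region (0.43 μM) were reacted with each biotinyl-aminoacyl-oxazolone at 2–1250 μM for 90 minutes at room temperature, in 50 μL HEPES/NaCl/KCl/MgCl2/CaCl2 buffer containing 5% acetonitrile at pH 6.9–7.0. RNA captured on streptavidin was quantified by triplicate qPCR and by Illumina sequencing. The fraction reacted for each sequence was fit to a pseudo-first-order model with bootstrapping, and catalytic enhancement is the median kA divided by the uncatalyzed rate, taken as the low-activity peak of a bimodal Gaussian fit.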

[2] = system: biotinyl-Ile-oxazolone; experiment: self-aminoacylation, catalytic enhancement (BIO) (fold over background); higher = more active; k-Seq, kA / k0A0; sequences stand for … in GGGAAUGGAUCCACAUCUACGAAUUC…UUCACUGCAGACUUGACGAAGCUG
Procedure, shortened: as §1

[3] = system: biotinyl-Met-oxazolone; experiment: self-aminoacylation, catalytic enhancement (BMO) (fold over background); higher = more active; k-Seq, kA / k0A0; sequences stand for … in GGGAAUGGAUCCACAUCUACGAAUUC…UUCACUGCAGACUUGACGAAGCUG
Procedure, shortened: as §1

[4] = system: biotinyl-Val-oxazolone; experiment: self-aminoacylation, catalytic enhancement (BVO) (fold over background); higher = more active; k-Seq, kA / k0A0; sequences stand for … in GGGAAUGGAUCCACAUCUACGAAUUC…UUCACUGCAGACUUGACGAAGCUG
Procedure, shortened: as §1

[5] = system: biotinyl-Leu-oxazolone; experiment: self-aminoacylation, catalytic enhancement (BLO) (fold over background); higher = more active; k-Seq, kA / k0A0; sequences stand for … in GGGAAUGGAUCCACAUCUACGAAUUC…UUCACUGCAGACUUGACGAAGCUG
Procedure, shortened: as §1

[6] = system: biotinyl-Trp-oxazolone; experiment: self-aminoacylation, catalytic enhancement (BWO) (fold over background); higher = more active; k-Seq, kA / k0A0; sequences stand for … in GGGAAUGGAUCCACAUCUACGAAUUC…UUCACUGCAGACUUGACGAAGCUG
Procedure, shortened: as §1

Row | Sequence | self-aminoacylation [1] | self-aminoacylation [2] | self-aminoacylation [3] | self-aminoacylation [4] | self-aminoacylation [5] | self-aminoacylation [6]
1 | AUUCACCUAGGUCAUACGGUG [Fam2.2 aminoacylation ribozyme variant] | 55.7 | 4.38 | 7.59 | 4.41 | 10.3 | 6.75
2 | AUUCACCUAGGUCAUAGAGUG [Fam2.2 aminoacylation ribozyme variant] | 10.1 | 2.23 | 2.98 | 2.08 | 3.92 | 2.12
3 | AUUCACCUAGGUCAUAGCGUG [Fam2.2 aminoacylation ribozyme variant] | 17.1 | 2.46 | 3.36 | 2.15 | 4.63 | 3.55
4 | AUUCACCUAGGUCAUAGGGUG [Fam2.2 aminoacylation ribozyme variant] | 2.06 | 1.39 | 1.75 | 1.35 | 2.06 | 1.49
5 | AUUCACCUAGGUCAUAGGUUG [Fam2.2 aminoacylation ribozyme variant] | 0.595 | 0.63 | 0.846 | 0.77 | 0.9 | 0.441
6 | AUUCACCUAGGUCAUCAAGUG [Fam2.2 aminoacylation ribozyme variant] | 1.21 | 0.747 | 0.662 | 0.711 | 0.756 | 0.347
7 | AUUCACCUAGGUCAUCAGGAG [Fam2.2 aminoacylation ribozyme variant] | 0.931 | 0.957 | 0.951 | 1.09 | 1.01 | 0.779
8 | AUUCACCUAGGUCAUCAGGGG [Fam2.2 aminoacylation ribozyme variant] | 0.986 | 1.22 | 0.955 | 1.22 | 1.32 | 0.985
9 | AUUCACCUAGGUCAUCAGGUG [Fam2.2 aminoacylation ribozyme variant] | 1.31 | 1.19 | 1.39 | 1.3 | 1.56 | 1.39
10 | AUUCACCUAGGUCAUCCAGUG [Fam2.2 aminoacylation ribozyme variant] | 52 | 5.19 | 7.78 | 4.21 | 9.68 | 6.96
11 | AUUCACCUAGGUCAUCGCGGG [Fam2.2 aminoacylation ribozyme variant] | 10.7 | 2.97 | 3.25 | 2.47 | 4.05 | 2.25
12 | AUUCACCUAGGUCAUCGGAGG [Fam2.2 aminoacylation ribozyme variant] | 0.759 | 0.829 | 0.898 | 1.03 | 0.991 | 0.621
13 | AUUCACCUAGGUCAUCGGAUA [Fam2.2 aminoacylation ribozyme variant] | 0.865 | 0.894 | 0.754 | 1.2 | 0.877 | 0.615
14 | AUUCACCUAGGUCAUCGGCUU [Fam2.2 aminoacylation ribozyme variant] | 6.3 | 2.1 | 2.26 | 2.02 | 2.3 | 3.27
15 | AUUCACCUAGGUCAUCGGGAU [Fam2.2 aminoacylation ribozyme variant] | 18.7 | 3.59 | 6.11 | 3.4 | 9.22 | 5.12
16 | AUUCACCUAGGUCAUCGGGCA [Fam2.2 aminoacylation ribozyme variant] | 3.27 | 3.5 | 3.67 | 3.24 | 5.57 | 2.81
17 | AUUCACCUAGGUCAUCGGGCG [Fam2.2 aminoacylation ribozyme variant] | 13.8 | 4.76 | 7.58 | 4.82 | 10.3 | 5.66
18 | AUUCACCUAGGUCAUCGGGCU [Fam2.2 aminoacylation ribozyme variant] | 37.6 | 5.03 | 8.6 | 4.55 | 12.4 | 6.09
19 | AUUCACCUAGGUCAUCGGGGG [Fam2.2 aminoacylation ribozyme variant] | 32.6 | 4.62 | 6.96 | 4.28 | 9.91 | 5.49
20 | AUUCACCUAGGUCAUCGGUGG [Fam2.2 aminoacylation ribozyme variant] | 4.26 | 1.5 | 1.97 | 1.52 | 1.85 | 1.81
21 | AUUCACCUAGGUCAUCGGUUA [Fam2.2 aminoacylation ribozyme variant] | 1.09 | 1.11 | 1.28 | 1.17 | 1.27 | 1.35
22 | AUUCACCUAGGUCAUCGUGUU [Fam2.2 aminoacylation ribozyme variant] | 0.729 | 0.899 | 0.887 | 0.73 | 0.905 | 1.62

Row | Sequence | self-aminoacylation [1] | self-aminoacylation [2] | self-aminoacylation [3] | self-aminoacylation [4] | self-aminoacylation [5] | self-aminoacylation [6]
23 | AUUCACCUAGGUCAUCUUGUG [Fam2.2 aminoacylation ribozyme variant] | 1.37 | 0.835 | 1.13 | 1.04 | 1.18 | 0.594
24 | AUUCACCUAGGUCAUGAGGUG [Fam2.2 aminoacylation ribozyme variant] | 3.32 | 1.94 | 2.41 | 1.81 | 3.15 | 1.75
25 | AUUCACCUAGGUCAUGGCGUG [Fam2.2 aminoacylation ribozyme variant] | 59.8 | 5.83 | 9.82 | 5.9 | 13.2 | 8.17
26 | AUUCACCUAGGUCAUGGGGCG [Fam2.2 aminoacylation ribozyme variant] | 1.37 | 2.18 | 2.3 | 2.27 | 3.14 | 2.15
27 | AUUCACCUAGGUCAUGGGGUC [Fam2.2 aminoacylation ribozyme variant] | 1.36 | 1.32 | 1.39 | 1.4 | 1.2 | 1
28 | AUUCACCUAGGUCAUGGGGUG [Fam2.2 aminoacylation ribozyme variant] | 39.9 | 3.7 | 5.76 | 3.56 | 7.33 | 5.27
29 | AUUCACCUAGGUCAUGGGGUU [Fam2.2 aminoacylation ribozyme variant] | 0.983 | 1.5 | 1.68 | 1.58 | 1.52 | 1.51
30 | AUUCACCUAGGUCAUUGAGUG [Fam2.2 aminoacylation ribozyme variant] | 12.3 | 2.6 | 3.53 | 2.3 | 4.17 | 3.89
31 | AUUCACCUAGGUCCUAGGGUG [Fam2.2 aminoacylation ribozyme variant] | 4.72 | 2.06 | 2.55 | 1.75 | 4.26 | 3.15
32 | AUUCACCUAGGUCCUCGAGUG [Fam2.2 aminoacylation ribozyme variant] | 3.5 | 1.26 | 1.36 | 1.38 | 2.12 | 1.18
33 | AUUCACCUAGGUCCUCGGGCG [Fam2.2 aminoacylation ribozyme variant] | 35.3 | 3.37 | 4.65 | 2.7 | 4.27 | 3.17
34 | AUUCACCUAGGUCGUCGAGUG [Fam2.2 aminoacylation ribozyme variant] | 0.746 | 0.661 | 0.743 | 0.878 | 0.851 | 0.529
35 | AUUCACCUAGGUCGUCGCGUG [Fam2.2 aminoacylation ribozyme variant] | 39 | 3.52 | 5.72 | 3.84 | 7.92 | 5.27
36 | AUUCACCUAGGUCUUAGGGUG [Fam2.2 aminoacylation ribozyme variant] | 32.2 | 3.08 | 5.1 | 2.85 | 7.06 | 4.24
37 | AUUCACCUAGGUCUUCGGGUC [Fam2.2 aminoacylation ribozyme variant] | 3.66 | 1.65 | 1.33 | 1.68 | 2.37 | 1.79
38 | AUUCACCUAGGUCUUCGGGUU [Fam2.2 aminoacylation ribozyme variant] | 13.8 | 2.82 | 3.09 | 2.98 | 3.66 | 2.94
39 | AUUCACCUAGGUCUUUGGGUG [Fam2.2 aminoacylation ribozyme variant] | 56.1 | 4.28 | 6.91 | 4.09 | 9.98 | 6.83
40 | AUUCACCUAGGUGAUCGGGUA [Fam2.2 aminoacylation ribozyme variant] | 9.83 | 2.67 | 3.18 | 2.48 | 3.14 | 3.59
41 | AUUCACCUAGGUGAUCGGGUG [Fam2.2 aminoacylation ribozyme variant] | 16.6 | 2.52 | 2.81 | 2.62 | 3.27 | 3.34
42 | AUUCACCUAGGUUAACGGGUG [Fam2.2 aminoacylation ribozyme variant] | 24.8 | 2 | 2.55 | 2.1 | 3.22 | 2.83
43 | AUUCACCUAGGUUAUCGGAUG [Fam2.2 aminoacylation ribozyme variant] | 0.355 | 0.661 | 0.712 | 0.986 | 0.673 | 0.723
